# Experimental data reported in article PMC12772213.
# Read-outs that look alike come from different tables or passages of the source.
# Tests used:
# [1] = target: Actin filaments (rabbit skeletal muscle actin) (rabbit) (UniProt P68135)
# Pyrene-actin (rabbit) = Pyrene-actin (rabbit) (UniProt P68135); experiment: stopped-flow pyrene-actin fluorescence; myosin heads (apyrase-treated) mixed with equimolar pyrene-actin 10 min at RT in KMg25 buffer (60 mM MOPS pH 7, 25 mM KCl, 1 mM EGTA, 1 mM MgCl2, 1 mM DTT), then mixed with ATP; ATP-induced dissociation followed by pyrene fluorescence
# [2] = target: Actin filaments (rabbit skeletal muscle actin) (rabbit) (UniProt P68135); experiment: three-bead optical trap; isometric feedback (hindering load); detachment rate vs. force fitted to the Bell equation, interactions >10 pN excluded; cHMM held through antibody to the S2Tag; 20 °C
# [3] = target: Actin filaments (rabbit skeletal muscle actin) (rabbit) (UniProt P68135); experiment: three-bead optical trap; unloaded; cHMM held on pedestal beads through antibody to the S2Tag, actin filament suspended between two trapped beads; 2 mM MgATP; 20 °C; 60 mM MOPS, 25 mM KCl, 1 mM DTT, 1 mM MgCl2, 1 mM EGTA; single-molecule events by bead covariance
# [4] = target: Actin filaments (rabbit skeletal muscle actin) (rabbit) (UniProt P68135); experiment: three-bead optical trap; pedestal bead stage feedback; time between single actomyosin interactions at saturating (2 mM) ATP, double-exponential distribution; cHMM held through antibody to the S2Tag; 20 °C
# [5] = target: Actin filaments (rabbit skeletal muscle actin) (rabbit) (UniProt P68135); experiment: three-bead optical trap; unloaded; cHMM held on pedestal beads through antibody to the S2Tag, actin filament suspended between two trapped beads; 1 µM MgATP; 20 °C; 60 mM MOPS, 25 mM KCl, 1 mM DTT, 1 mM MgCl2, 1 mM EGTA; single-molecule events by bead covariance
# [6] = target: Actin filaments (rabbit skeletal muscle actin) (rabbit) (UniProt P68135); experiment: three-bead optical trap; isometric feedback (hindering load); detachment rate vs. force fitted to the Bell equation, interactions >10 pN excluded; cHMM held through antibody to the S2Tag; 20 °C; remark: listed apart in the source
"Actin gliding velocity (in vitro gliding assay, cHMM held through S2Tag antibody, rhodamine-phalloidin labeled actin, 32 °C) [1]",maximum rate of ATP-induced dissociation of actomyosin (Pyrene-actin (rabbit)),Bell equation k0 (detachment rate at zero force) [2],k detach (2 mM ATP) [3],actin reattachment rate in optical trap (fast) [4],actin reattachment rate in optical trap (slow) [4],k detach (1 μM ATP) [5],Bell equation k0 (detachment rate at zero force) [6],Substance
0.46 µm/s,340 s⁻¹,12.9 s⁻¹,12.1 s⁻¹,23 s⁻¹,1.62 s⁻¹,6.26 s⁻¹,,Human β-cardiac myosin HMM M493I mutant (M493I-cHMM) (from UniProt P12883 1-1935; P05977 1-188; P97457 1-169) (complex)
1.6 µm/s,,32.9 s⁻¹,58.5 s⁻¹,17 s⁻¹,0.83 s⁻¹,6.09 s⁻¹,32 s⁻¹,Human β-cardiac myosin wild type HMM (WT-cHMM) (from UniProt P12883 1-1935; P05977 1-188; P97457 1-169) (complex)
